# Laboratory results as given in patent publication US20240116985A1 (published 2024).
# Starred links: 1 amine or outer side, 2 acyl side, 3 side chain; linkers in the order of their positions; H or OH if unused. Positions of bridges follow the written chain, without caps; N, C: chain ends. Non-standard residues stand in square brackets, D forms with d. Primed or numbered codes have the meaning given here. *: point of attachment. PyrS2″ = (S)-3-amino-1-((pent-4-en-1-yloxy)carbonyl)pyrrolidine-3-carboxylic acid (stapling residue), C=CCCCOC(=O)N1CC[C@@](N[*:1])(C(=O)[*:2])C1; B5(16) = 2-amino-2-(pent-4-en-1-yl)hept-6-enoic acid = 2,2-bis(4-pentenyl)glycine (stitching residue), C=CCCCC(CCCC=C)(N[*:1])C(=O)[*:2]; B5(6) = 2-amino-2-(pent-4-en-1-yl)hept-6-enoic acid (bis(4-pentenyl)glycine), stitching residue, C=CCCCC(CCCC=C)(N[*:1])C(=O)[*:2]; TfeGA = (S)-2-amino-3-((carboxymethyl)(2,2,2-trifluoroethyl)amino)propanoic acid, O=C([C@H](CN(CC(=O)[*:3])CC(F)(F)F)N[*:1])[*:2]; PyrS2 = (S)-3-amino-1-((pent-4-en-1-yloxy)carbonyl)pyrrolidine-3-carboxylic acid, C=CCCCOC(=O)N1CC[C@@](N[*:1])(C(=O)[*:2])C1; 4MePipBz = 4-((4-methylpiperazin-1-yl)methyl)benzoyl on Lys side chain, CN1CCN(Cc2ccc(C(=O)*)cc2)CC1; MeBipipAc = 1'-methyl-[1,4'-bipiperidine]-4-carbonyl on Lys side chain, CN1CCC(N2CCC(C(=O)*)CC2)CC1; 35CF3PhPr = 3-(3,5-bis(trifluoromethyl)phenyl)propanoyl, O=C(CCc1cc(C(F)(F)F)cc(C(F)(F)F)c1)*; B5(3) = 2,2-bis(4-pentenyl)glycine (stitching residue), C=CCCCC(CCCC=C)(N[*:1])C(=O)[*:2]; MeMorphBz = 4-(morpholinomethyl)benzoyl on Lys side chain, O=C(c1ccc(CN2CCOCC2)cc1)*; B5 = 2-amino-2-(pent-4-en-1-yl)hept-6-enoic acid, C=CCCCC(CCCC=C)(N[*:1])C(=O)[*:2]; 22PhPr = 2,2-diphenylpropanoyl on Lys side chain, CC(C(=O)*)(c1ccccc1)c1ccccc1; Acetyl(4-Me-piperazin-1-yl) = CN1CCN(CC(=O)*)CC1; Phe(2-CF3) = N[C@@H](Cc1ccccc1C(F)(F)F)C(=O)O; Ala(cPent) = N[C@@H](CC1CCCC1)C(=O)O; Bta = N[C@@H](Cc1csc2ccccc12)C(=O)O; αAllylPro = C=CC[C@@]1(C(=O)O)CCCN1; tBuAla = CC(C)(C)C[C@H](N)C(=O)O; 3Thi = N[C@@H](Cc1ccsc1)C(=O)O; S8 = C=CCCCCCC[C@](C)(N)C(=O)O; AdamantC = not defined here; PyrS2(4) = not defined here; hSer = N[C@@H](CCO)C(=O)O; Octanoyl = CCCCCCCC(=O)*; Butyryl = CCCC(=O)*
# B1: I-496 (peptide)
# peptide: Ac-[αAllylPro]DA[B5(6)][hSer]EAAFQ[S8]F[Bta]Q-NH2
# modifications: staple 1-4, 4-11; not fully specified; printed as Ac-PL3-Asp-Ala-B5-Hse-Glu-Ala-Ala-Phe-Gln-S8-Phe-BztA-Gln-NH2
# notes: Stapled peptide composition
# B2: I-498 (peptide)
# peptide: Ac-[αAllylPro]DA[B5(6)][hSer]EAAFQ[S8]F[Bta]Q-NH2
# modifications: staple 1-4, 4-11; not fully specified; printed as Ac-PL3-Asp-Ala-B5-Hse-Glu-Ala-Ala-Phe-Gln-S8-Phe-BztA-Gln-NH2
# notes: Stapled peptide composition
# B3: I-497 (peptide)
# peptide: Ac-[αAllylPro]DA[B5(6)][hSer]EAAFQ[S8]F[Bta]Q-NH2
# modifications: staple 1-4, 4-11; not fully specified; printed as Ac-PL3-Asp-Ala-B5-Hse-Glu-Ala-Ala-Phe-Gln-S8-Phe-BztA-Gln-NH2
# notes: Stapled peptide composition
# Molecular target: T1, full-length beta-Catenin (Uniprot ID P35222) (Homo sapiens (Human), UniProt P35222 1-781)
# T1 construct: Used full-length in the fluorescence polarization probe solution (10 nM); also called bCat; B-Catenin
# T1 sequence: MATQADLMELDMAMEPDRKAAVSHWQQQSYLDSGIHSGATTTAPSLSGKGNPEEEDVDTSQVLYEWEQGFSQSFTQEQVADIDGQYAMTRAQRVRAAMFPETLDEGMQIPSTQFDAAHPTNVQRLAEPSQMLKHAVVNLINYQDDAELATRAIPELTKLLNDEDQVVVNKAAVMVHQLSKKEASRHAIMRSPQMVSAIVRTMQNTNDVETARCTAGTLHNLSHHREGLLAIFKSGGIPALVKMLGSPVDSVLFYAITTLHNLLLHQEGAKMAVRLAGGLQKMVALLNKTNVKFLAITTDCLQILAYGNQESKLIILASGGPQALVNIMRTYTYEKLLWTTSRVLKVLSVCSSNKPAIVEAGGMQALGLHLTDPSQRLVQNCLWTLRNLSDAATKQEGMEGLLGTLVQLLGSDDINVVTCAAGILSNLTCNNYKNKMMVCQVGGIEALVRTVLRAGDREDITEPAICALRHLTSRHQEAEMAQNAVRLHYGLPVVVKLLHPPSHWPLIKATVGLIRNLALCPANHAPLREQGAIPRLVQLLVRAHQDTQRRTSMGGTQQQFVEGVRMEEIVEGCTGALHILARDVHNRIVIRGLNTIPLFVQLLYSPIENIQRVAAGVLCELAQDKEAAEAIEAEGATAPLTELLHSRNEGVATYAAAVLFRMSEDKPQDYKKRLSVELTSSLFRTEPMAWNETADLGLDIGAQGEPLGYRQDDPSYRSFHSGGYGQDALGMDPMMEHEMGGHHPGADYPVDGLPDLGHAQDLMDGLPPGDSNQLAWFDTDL
# Experiment: fluorescence polarization competition; displacement of 5FAM-TCF4(10-53) from full-length beta-catenin
# Protocol: The plate was incubated protected from light for 60 minutes at 20° C. prior to read. Reads were performed on a CLARIOstar plate reader (BMG Labtech) in duplicate, and data were fitted to a 1:1 binding model with hill slope using an in-house script. All provided concentrations are final concentrations.
row,Binder,EC50
1,B1,5 µM
2,B2,5 µM
3,B3,5 µM

# Molecular target: T2, B-cat-Halo (UniProt P35222 1-781)
# T2 sequence (looked up): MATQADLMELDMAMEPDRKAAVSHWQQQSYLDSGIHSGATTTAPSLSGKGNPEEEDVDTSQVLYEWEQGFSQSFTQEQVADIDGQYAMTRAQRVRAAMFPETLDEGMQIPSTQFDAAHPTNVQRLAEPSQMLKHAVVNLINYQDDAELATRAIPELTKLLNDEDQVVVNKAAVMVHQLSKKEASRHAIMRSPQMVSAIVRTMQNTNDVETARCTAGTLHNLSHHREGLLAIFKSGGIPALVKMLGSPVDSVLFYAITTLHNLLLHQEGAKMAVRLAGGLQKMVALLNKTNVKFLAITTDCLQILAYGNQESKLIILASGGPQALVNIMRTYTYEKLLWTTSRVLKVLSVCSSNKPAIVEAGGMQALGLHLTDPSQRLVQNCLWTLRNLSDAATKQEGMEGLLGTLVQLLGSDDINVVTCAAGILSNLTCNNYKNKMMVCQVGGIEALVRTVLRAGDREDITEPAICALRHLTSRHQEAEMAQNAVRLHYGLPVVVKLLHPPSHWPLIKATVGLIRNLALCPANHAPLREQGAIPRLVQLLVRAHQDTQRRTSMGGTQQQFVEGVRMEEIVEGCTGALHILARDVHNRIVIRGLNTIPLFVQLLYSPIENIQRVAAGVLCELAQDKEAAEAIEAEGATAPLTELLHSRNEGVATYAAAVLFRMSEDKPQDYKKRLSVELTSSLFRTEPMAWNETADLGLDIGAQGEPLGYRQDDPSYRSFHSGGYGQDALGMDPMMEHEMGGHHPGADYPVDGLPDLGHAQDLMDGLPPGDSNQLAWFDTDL
# Experiment: cell-based or functional assay
row,Binder,NanoBRET Abs IC50
1,"Ac-[αAllylPro]D[tBuAla][B5(16)]D[TfeGA]AAFL[PyrS2″][Phe(2-CF3)][Bta]Q-NH2 (staple 1-4, 4-11) [I-1704]",5.3 µM
2,"Ac-[αAllylPro]D[tBuAla][B5]D[TfeGA]AAFL[PyrS2][Ala(cPent)][Bta]Q-NH2 (staple 1-4, 4-11) [I-1703]",6.6 µM

# Molecular target: T3, B-cat-Halo (beta-catenin HaloTag NanoBRET construct expressed in HEK293 cells) (UniProt P35222 1-781)
# T3 sequence (looked up): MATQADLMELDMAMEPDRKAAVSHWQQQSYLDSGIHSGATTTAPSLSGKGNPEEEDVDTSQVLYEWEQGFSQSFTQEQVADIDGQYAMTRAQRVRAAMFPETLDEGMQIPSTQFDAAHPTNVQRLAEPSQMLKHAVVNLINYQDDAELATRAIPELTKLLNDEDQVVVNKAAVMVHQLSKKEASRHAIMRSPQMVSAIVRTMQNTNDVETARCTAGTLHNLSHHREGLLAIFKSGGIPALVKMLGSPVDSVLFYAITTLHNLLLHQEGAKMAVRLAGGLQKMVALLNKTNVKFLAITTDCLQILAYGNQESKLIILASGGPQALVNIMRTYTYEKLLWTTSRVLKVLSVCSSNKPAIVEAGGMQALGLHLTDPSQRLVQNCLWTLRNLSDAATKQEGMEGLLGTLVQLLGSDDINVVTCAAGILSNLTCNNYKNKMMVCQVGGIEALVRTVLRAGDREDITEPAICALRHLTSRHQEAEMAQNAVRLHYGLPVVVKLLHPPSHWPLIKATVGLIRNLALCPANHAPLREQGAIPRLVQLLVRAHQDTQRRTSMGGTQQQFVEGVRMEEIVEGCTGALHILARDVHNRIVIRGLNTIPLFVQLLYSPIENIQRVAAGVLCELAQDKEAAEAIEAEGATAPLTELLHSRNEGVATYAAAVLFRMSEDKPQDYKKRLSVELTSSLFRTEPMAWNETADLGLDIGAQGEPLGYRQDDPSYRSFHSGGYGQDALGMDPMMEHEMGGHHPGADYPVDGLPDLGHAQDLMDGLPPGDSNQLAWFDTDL
# Experiment: cell-based or functional assay
row,Binder,NanoBRET Abs IC50
1,"Ac-[αAllylPro]D[tBuAla][B5(3)]DDAK(AdamantC)FN[PyrS2(4)][3Thi][Bta]Q-NH2 (staple 1-4, 4-11; reading uncertain) [I-899]",> 20 µM
2,"Ac-[αAllylPro]D[tBuAla][B5(3)]DDAAFN[PyrS2″][3Thi][Bta]QK(MeBipipAc)-NH2 (staple 1-4, 4-11) [I-907]",27.8 µM
3,"Ac-[αAllylPro]D[tBuAla][B5(3)]DDAK(mPEG2)FN[PyrS2][3Thi][Bta]Q-NH2 (staple 1-4, 4-11; not fully specified) [I-892]",> 20 µM
4,"Ac-[αAllylPro]D[tBuAla][B5(3)]DDAK(Butyryl)FN[PyrS2][3Thi][Bta]Q-NH2 (staple 1-4, 4-11) [I-897]",> 20 µM
5,"Ac-[αAllylPro]D[tBuAla][B5(3)]DDAAFN[PyrS2″][3Thi][Bta]QK(Acetyl(4-Me-piperazin-1-yl))-NH2 (staple 1-4, 4-11) [I-906]",26.5 µM
6,"Ac-[αAllylPro]D[tBuAla][B5(3)]DDAAFN[PyrS2″][3Thi][Bta]QK(MeMorphBz)-NH2 (staple 1-4, 4-11) [I-909]",28.4 µM
7,"Ac-[αAllylPro]D[tBuAla][B5(3)]DDAAFN[PyrS2][3Thi][Bta]QK(35CF3PhPr)-NH2 (staple 1-4, 4-11) [I-902]",21.2 µM
8,"Ac-[αAllylPro]D[tBuAla][B5(3)]DDAAFN[PyrS2″][3Thi][Bta]QK(4MePipBz)-NH2 (staple 1-4, 4-11) [I-908]",26 µM
9,"Ac-[αAllylPro]D[tBuAla][B5(3)]DDAK(4MePipBz)FN[PyrS2″][3Thi][Bta]Q-NH2 (staple 1-4, 4-11) [I-889]",> 20 µM
10,"Ac-[αAllylPro]D[tBuAla][B5(3)]DDAAFN[PyrS2″][3Thi][Bta]QK(22PhPr)-NH2 (staple 1-4, 4-11) [I-904]",20 µM
11,"Ac-[αAllylPro]D[tBuAla][B5(3)]DDAK(Octanoyl)FN[PyrS2][3Thi][Bta]Q-NH2 (staple 1-4, 4-11; not fully specified) [I-898]",> 20 µM
